Results from the RNAGym collection of RNA variant scans (doi:10.1073/pnas.2313332121).
Variants at the floor of the assay were thinned out.

B1: TPR 5TU (parent)
chain: GGAUCUUCUCGAUCUAACAAAAAAGACAAAUCUGCCACAAAGCUUGAGAGCAUCUUCGGAUGCAGAGGCGGCAGCCUUCGGUGGCGCGAUAGCGCCAACGUUCUCAACUAUGACACGCAAAACGCGUGCUCCGUUGAAUGGAGUUUAUCAUG

Variants of: B1
Assay: polymerase ribozyme fitness, log enrichment relative to wild type (log ratio); higher = more active; in vitro selection for triplet polymerase activity
Procedure, shortened: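 One round of in vitro selection, in triplicate, was applied to PCR-built, transcribed mutant libraries of each subunit of a heterodimeric triplet polymerase ribozyme. The steps were annealing with a biotinylated primer, partner subunit and triplets, incubation frozen at −7 °C, gel excision of extended constructs, streptavidin-bead capture and RT-PCR. Fitness is the logarithm, base 2, of genotype enrichment over wild-type enrichment from inverse-variance-weighted replicate averages of Illumina-sequenced inputs and outputs, keeping genotypes with ≥10 input reads and ≥1 read per output.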

Going from U53A G92A to A52U A89G, the “polymerase ribozyme fitness (log ratio)” value rises from -3.87 to -3.14.

Compared with U53G C93A C103G, A52G C93G G141C is higher in “polymerase ribozyme fitness (log ratio)” value: at most -4.2 for the first, -3.74 for the second.

First: U53A C57A C69G A91C
Second: A52G G71U C96U
The “polymerase ribozyme fitness (log ratio)” value of the first is lower: at most -4.2 for the first, -4.1 for the second.

Compared with A52U G136A, A52U G84A G143C is lower in “polymerase ribozyme fitness (log ratio)” value: -0.592 for the first, -3.92 for the second.

U53A C54A C108G G140A and U53G A113C G133A cannot be ordered by “polymerase ribozyme fitness (log ratio)” value: at most -4.2 for the first, at most -4.2 for the second.

Compared with A52G G84U, A52G G84A is higher in “polymerase ribozyme fitness (log ratio)” value: -1.32 for the first, -1.03 for the second.

Compared with U53G C96A U104G, A52G G58U A66G G70U G92A G100A C116A U148A is lower in “polymerase ribozyme fitness (log ratio)” value: -3.96 for the first, at most -4.2 for the second.

Compared with U53A C95A C125U, A52G G83U U101A A115U is lower in “polymerase ribozyme fitness (log ratio)” value: -1.7 for the first, -3.39 for the second.

U53A U56G C57U A73G C87A G143A and U53A G80U C96A G143A U146C C149G cannot be ordered by “polymerase ribozyme fitness (log ratio)” value: at most -4.2 for the first, at most -4.2 for the second.

First: A52U G58C U78A A122G
Second: A52U U61G A91G C96A G117C
The “polymerase ribozyme fitness (log ratio)” value of the first is lower: at most -4.2 for the first, -3.76 for the second.

Going from A52U C57A U135C to U53A G62A G86U, the “polymerase ribozyme fitness (log ratio)” value rises from -3.88 to -2.24.

Compared with U53A U55A G62C, U53A A97C is higher in “polymerase ribozyme fitness (log ratio)” value: -2.35 for the first, -0.583 for the second.

Compared with U53A C54U C57A G86A, U53A C63A A66G G67A G84A A97G is lower in “polymerase ribozyme fitness (log ratio)” value: -2.08 for the first, at most -4.2 for the second.

First: U53C G84A C95U
Second: U53A C76U G83A
The “polymerase ribozyme fitness (log ratio)” value of the first is higher: -0.536 for the first, -1.6 for the second.

Going from U53A U130G A142C to U53A C85A G124U G143C U146C, the “polymerase ribozyme fitness (log ratio)” value falls from -0.549 to at most -4.2.

Going from U53A A73U to U53A A98U, the “polymerase ribozyme fitness (log ratio)” value rises from -2.21 to -1.39.

First: A52G C57G A73U G84A
Second: U53G C57G G70C C79G A89U A91U C93U
The “polymerase ribozyme fitness (log ratio)” value of the first is higher: -3.44 for the first, at most -4.2 for the second.

Going from U53A U56A to U53A U56G, the “polymerase ribozyme fitness (log ratio)” value rises from -2.45 to -1.11.

First: U53C G86U C96A U146A
Second: U53A G83A C114U
The “polymerase ribozyme fitness (log ratio)” value of the first is higher: -2.73 for the first, -3.28 for the second.

First: A52U U78C U102C
Second: A52G U104A A122G U139G
The “polymerase ribozyme fitness (log ratio)” value of the first is lower: -2.88 for the first, -1.23 for the second.

U53A C93A C105A A119G and U53A G88C cannot be ordered by “polymerase ribozyme fitness (log ratio)” value: at most -4.2 for the first, at most -4.2 for the second.

First: U53G A119C A122C G141U
Second: U53G C95U
The “polymerase ribozyme fitness (log ratio)” value of the first is higher: -0.69 for the first, -3.07 for the second.

Going from U53A C57U G143C to U53A U101G C125A, the “polymerase ribozyme fitness (log ratio)” value rises from -3.52 to -0.788.

First: U53G C57A C85U A115U A121C
Second: A52U U56A A66U C93A C123G G143A U146A
The “polymerase ribozyme fitness (log ratio)” value of the first is higher: -2.93 for the first, at most -4.2 for the second.

A52U U82A C93A C131G and U53A C96U C99U G143C cannot be ordered by “polymerase ribozyme fitness (log ratio)” value: at most -4.2 for the first, at most -4.2 for the second.

Compared with A52G G58C C99U, U53G A97U is lower in “polymerase ribozyme fitness (log ratio)” value: -0.284 for the first, -2.68 for the second.

First: U53G A97C
Second: U53G C72G C108G C116A
The “polymerase ribozyme fitness (log ratio)” value of the first is higher: -1.81 for the first, at most -4.2 for the second.

First: U53G C96U C114U A120C A147U
Second: U53A U148G
The “polymerase ribozyme fitness (log ratio)” value of the first is higher: -3.11 for the first, -4.01 for the second.

U53A G62C C93A C118G G133A and A52U A91U A115G C131U cannot be ordered by “polymerase ribozyme fitness (log ratio)” value: at most -4.2 for the first, at most -4.2 for the second.

Compared with U53A C79A A150U, A52G U78C A89U is higher in “polymerase ribozyme fitness (log ratio)” value: at most -4.2 for the first, -1.24 for the second.

First: U53A C118G U144C
Second: U53A G58C
The “polymerase ribozyme fitness (log ratio)” value of the first is lower: -1.81 for the first, -1.52 for the second.

Going from U53A G58A to U53A C63U C99G, the “polymerase ribozyme fitness (log ratio)” value falls from -0.0533 to -3.81.

Going from A52G C114A to A52G U55A C87G, the “polymerase ribozyme fitness (log ratio)” value falls from -3.48 to at most -4.2.

Compared with A52G U109G A122U, A52U G59A A98G C131U is lower in “polymerase ribozyme fitness (log ratio)” value: -1.46 for the first, -1.78 for the second.

Compared with A52G U102G G124A, U53C U78G U127C U148C is lower in “polymerase ribozyme fitness (log ratio)” value: -3.08 for the first, at most -4.2 for the second.

Going from U53A U55G C57A to U53A C54A G65U G86U A91U, the “polymerase ribozyme fitness (log ratio)” value falls from 0.733 to at most -4.2.

Compared with U53A G58C C96U U135G, A52G C57G C87U is higher in “polymerase ribozyme fitness (log ratio)” value: -3.98 for the first, -1.27 for the second.

Going from U53A C75U C85U C123U C125A to U53A C93A, the “polymerase ribozyme fitness (log ratio)” value falls from -2.32 to -3.27.

Compared with U53A A122G U134A, U53A U109G is higher in “polymerase ribozyme fitness (log ratio)” value: -3.02 for the first, -0.777 for the second.

First: U53A C54A A91U
Second: A52G C103U
The “polymerase ribozyme fitness (log ratio)” value of the first is lower: at most -4.2 for the first, -1.06 for the second.

U53A G92U A107U G136U and A52G G58C G68A C76A C85U U90G G117U cannot be ordered by “polymerase ribozyme fitness (log ratio)” value: at most -4.2 for the first, at most -4.2 for the second.

In the case of U53G C87U A120C, the “polymerase ribozyme fitness (log ratio)” value is reported as -2.07.
